The record followed here is PMC9302814.

The assay concerns the target SARS-CoV-2 Spike. The experiment in a line: SPR.
CC40.8 yielded a Kd of 1.6 nM and a dissociation rate constant (koff) of 0.00038 s⁻¹.

Substance CV3-25 came in with a Kd of 2.5 nM and a koff of 0.00061 s⁻¹.

With S2P6, the Kd stood at 9.7 nM and the off-rate constant (koff) was 0.0033 s⁻¹.
